# Measurements: patent US20220195049A1 (Scripps Research, published 2022)
# B1: KL001-16 (antibody, V domains shown)
# VH: QVQLVESGAEVKKPGSSVKVSCKASGGTFSSYAISWVRQAPGQGLEWMGRIIPILGIANYAQKFQGRVTVTADKSTSTAYMELSSLRSEDTAVYYCARSGYGYAYGSFDYWGQGTLVTVSS
# VL: QLVLTQPPSVSGAPGQTVTISCTGPTIGAGYDVHWYQQLPGAAPKLLIYGNLNRPSGVPDRFSGSKSGTSASLAITDLQAEDEADYYCQSYDSRLGVVFGGGTKLTVL
# B2: KL001-27 (antibody, V domains shown)
# VH: QVQLVESGAEVKKPGSSVKVSCKASGGTFSSYAISWVRQAPGQGLEWMGRIIPILGIANYAQKFQGRVTVTADKSTSTAYMELSSLRSEDTAVYYCARSGYGYAYGSFDYWGQGTLVTVSS
# VL: QLVLTQPPSVSGAPGQTVTISCTGQTIGAGYDVHWYQQLPGAAPKLLIYGNLNRPSGVPDRFSGSKSGTSASLAITDLQAEDEADYYCQSYDSTDGVVFGGGTKLTVL
# B3: KL001-15 (antibody, V domains shown)
# VH: QVQLVESGAEVKKPGSSVKVSCKASGGTFSSYAISWVRQAPGQGLEWMGRIIPILGIANYAQKFQGRVTVTADKSTSTAYMELSSLRSEDTAVYYCARSGYGYAYGSFDYWGQGTLVTVSS
# VL: QLVLTQPPSVSGAPGQTVTISCTGPTIQAGYDVHWYQQLPGAAPKLLIYGNLNRPSGVPDRFSGSKSGTSASLAITDLQAEDEADYYCQSYDSRLGVVFGGGTKLTVL
# B4: KL001-19 (antibody, V domains shown)
# VH: QVQLVESGAEVKKPGSSVKVSCKASGGTFSSYAISWVRQAPGQGLEWMGRIIPILGIANYAQKFQGRVTVTADKSTSTAYMELSSLRSEDTAVYYCARSGYGYAYGSFDYWGQGTLVTVSS
# VL: QLVLTQPPSVSGAPGQTVTISCTGPTIGAGYDVHWYQQLPGAAPKLLIYGNLNRPSGVPDRFSGSKSGTSASLAITDLQAEDEADYYCQSYDSTVGVVFGGGTKLTVL
# B5: KL001-09 (antibody, V domains shown)
# VH: QVQLVESGAEVKKPGSSVKVSCKASGGTFSSYAISWVRQAPGQGLEWMGRIIPILQIANYAQKFQGRVTVTADKSTSTAYMELSSLRSEDTAVYYCARSGYGYAYGSFDYWGQGTLVTVSS
# VL: QLVLTQPPSVSGAPGQTVTISCTGPPIGAGYDVHWYQQLPGAAPKLLIYGNLNRPSGVPDRFSGSKSGTSASLAITDLQAEDEADYYCQSYDSTPGVVFGGGTKLTVL
# B6: KL001-20 (antibody, V domains shown)
# VH: QVQLVESGAEVKKPGSSVKVSCKASGGTFSSYAISWVRQAPGQGLEWMGRIIPIMGIANYAQKFQGRVTVTADKSTSTAYMELSSLRSEDTAVYYCARSGYGYAYGSFDYWGQGTLVTVSS
# VL: QLVLTQPPSVSGAPGQTVTISCTGPTIGAGYDVHWYQQLPGAAPKLLIYGNLNRPSGVPDRFSGSKSGTSASLAITDLQAEDEADYYCQSYDSTLGVVFGGGTKLTVL
# B7: KL001-12 (antibody, V domains shown)
# VH: QVQLVESGAEVKKPGSSVKVSCKASGGTFSSYAISWVRQAPGQGLEWMGRIIPILGIANYAQKFQGRVTVTADKSTSTAYMELSSLRSEDTAVYYCARSGYGYAYGSFDYWGQGTLVTVSS
# VL: QLVLTQPPSVSGAPGQTVTISCTGPTIGAGYDVHWYQQLPGAAPKLLIYGNLNRPSGVPDRFSGSKSGTSASLAITDLQAEDEADYYCQSYDSALGVVFGGGTKLTVL
# B8: KL001-26 (antibody, V domains shown)
# VH: QVQLVESGAEVKKPGSSVKVSCKASGGTFSSYAISWVRQAPGQGLEWMGRIIPILGIANYAQKFQGRVTVTADKSTSTAYMELSSLRSEDTAVYYCARSGYGYAYGSFDYWGQGTLVTVSS
# VL: QLVLTQPPSVSGAPGQTVTISCTGPTIGQGYDVHWYQQLPGAAPKLLIYGNLNRPSGVPDRFSGSKSGTSASLAITDLQAEDEADYYCQSYDSRLGVVFGGGTKLTVL
# B9: KL001-14 (antibody, V domains shown)
# VH: QVQLVESGAEVKKPGSSVKVSCKASGGTFSSYAISWVRQAPGQGLEWMGRIIPILGIANYAQKFQGRVTVTADKSTSTAYMELSSLRSEDTAVYYCARSGYGYAYQSFDYWGQGTLVTVSS
# VL: QLVLTQPPSVSGAPGQTVTISCTGPQIGAGYDVHWYQQLPGAAPKLLIYGNLNRPSGVPDRFSGSKSGTSASLAITDLQAEDEADYYCQSYDSRLGVVFGGGTKLTVL
# B10: KL001-18 (antibody, V domains shown)
# VH: QVQLVESGAEVKKPGSSVKVSCKASGGTFSSYAISWVRQAPGQGLEWMGRIIPILGIANYAQKFQGRVTVTADKSTSTAYMELSSLRSEDTAVYYCARSGYGYAYGSFDYWGQGTLVTVSS
# VL: QLVLTQPPSVSGAPGQTVTISCTGQTIGAGYDVHWYQQLPGAAPKLLIYGNLNRPSGVPDRFSGSKSGTSASLAITDLQAEDEADYYCQSYDSTEGVVFGGGTKLTVL
# B11: KL001-02 (antibody, V domains shown)
# VH: QVQLVESGAEVKKPGSSVKVSCKASGGTFSSYAISWVRQAPGQGLEWMGRIIPILGIANYAQKFQGRVTVTADKSTSTAYMELSSLRSEDTAVYYCARSGHGYAYGSFDYWGQGTLVTVSS
# VL: QLVLTQPPSVSGAPGQTVTISCTGPTIGQGYDVHWYQQLPGAAPKLLIYGNLNRPSGVPDRFSGSKSGTSASLAITDLQAEDEADYYCQSYDSRLGVVFGGGTKLTVL
# B12: KL001-10 (antibody, V domains shown)
# VH: QVQLVESGAEVKKPGSSVKVSCKASGGTFSSYAISWVRQAPGQGLEWMGRIIPILGIANYAQKFQGRVTVTADKSTSTAYMELSSLRSEDTAVYYCARSGYGYAYGSFDYWGQGTLVTVSS
# VL: QLVLTQPPSVSGAPGQTVTISCTGPTIGAGYDVHWYQQLPGAAPKLLIYGNLNRPSGVPDRFSGSKSGTSASLAITDLQAEDEADYYCQSYDQTLGVVFGGGTKLTVL
# B13: KL001-24 (antibody, V domains shown)
# VH: QVQLVESGAEVKKPGSSVKVSCKASGGTFSSYAISWVRQAPGQGLEWMGRIIPILGQANYAQKFQGRVTVTADKSTSTAYMELSSLRSEDTAVYYCARSGYGYAYGSFDYWGQGTLVTVSS
# VL: QLVLTQPPSVSGAPGQTVTISCTGPTIGAGFDVHWYQQLPGAAPKLLIYGNLNRPSGVPDRFSGSKSGTSASLAITDLQAEDEADYYCQSYDSRLGVVFGGGTKLTVL
# B14: KL001-11 (antibody, V domains shown)
# VH: QVQLVESGAEVKKPGSSVKVSCKASGGTFSSYAISWVRQAPGQGLEWMGRIIPILGIANYAQKFQGRVTVTADKSTSTAYMELSSLRSEDTAVYYCARSGYGYAYGSFDYWGQGTLVTVSS
# VL: QLVLTQPPSVSGAPGQTVTISCTGPTIGAGYDVHWYQQLPGAAPKLLIYGNLNRPSGVPDRFSGSKSGTSASLAITDLQAEDEADYYCQSYDRTLGVVFGGGTKLTVL
# B15: KL001-21 (antibody, V domains shown)
# VH: QVQLVESGAEVKKPGSSVKVSCKASGGTFSSYAISWVRQAPGQGLEWMGRIIPVLGIANYAQKFQGRVTVTADKSTSTAYMELSSLRSEDTAVYYCARSGYGYAYGSFDYWGQGTLVTVSS
# VL: QLVLTQPPSVSGAPGQTVTISCTGPTIGAGYDVHWYQQLPGAAPKLLIYGNLNRPSGVPDRFSGSKSGTSASLAITDLQAEDEADYYCQAYDSTLGVVFGGGTKLTVL
# B16: KL001-06 (antibody, V domains shown)
# VH: QVQLVESGAEVKKPGSSVKVSCKASGGTFSSYAISWVRQAPGQGLEWMGRIIPILGIANYAQKFQGRVTVTADKSTSTAYMELSSLRSEDTAVYYCARSGYGYAYGSFDVWGQGTLVTVSS
# VL: QLVLTQPPSVSGAPGQTVTISCTGPTIGAGYDVHWYQQLPGAAPKLLIYGNLNRPSGVPDRFSGSKSGTSASLAITDLQAEDEADYYCQSYDSRLGVVFGGGTKLTVL
# B17: KL001-07 (antibody, V domains shown)
# VH: QVQLVESGAEVKKPGSSVKVSCKASGGTFSSYAISWVRQAPGQGLEWMGRQIPILGIANYAQKFQGRVTVTADKSTSTAYMELSSLRSEDTAVYYCARSGYGYAYGSFDYWGQGTLVTVSS
# VL: QLVLTQPPSVSGAPGQTVTISCTGPTIGAGYDVHWYQQLPGAAPKLLIYGNLNRPSGVPDRFSGSKSGTSASLAITDLQAEDEADYYCQSYDSRLGVVFGGGTKLTVL
# B18: KL001-04 (antibody, V domains shown)
# VH: QVQLVESGAEVKKPGSSVKVSCKASGGTFSSYAISWVRQAPGQGLEWMGRIIPILGIANYAQKFQGRVTVTADKSTSTAYMELSSLRSEDTAVYYCARSGYGYAYGSFAAWGQGTLVTVSS
# VL: QLVLTQPPSVSGAPGQTVTISCTGPTIGAGYDVHWYQQLPGAAPKLLIYGNLNRPSGVPDRFSGSKSGTSASLAITDLQAEDEADYYCQSYDSTLGVVFGGGTKLTVL
# B19: KL001-17 (antibody, V domains shown)
# VH: QVQLVESGAEVKKPGSSVKVSCKASGGTFSSYAISWVRQAPGQGLEWMGRIIPILGIANYAQKFQGRVTVTADKSTSTAYMELSSLRSEDTAVYYCARSGYGYAYGSFDYWGQGTLVTVSS
# VL: QLVLTQPPSVSGAPGQTVTISCTGPVIGAGYDVHWYQQLPGAAPKLLIYGNLNRPSGVPDRFSGSKSGTSASLAITDLQAEDEADYYCQSYDSRLGVVFGGGTKLTVL
# B20: KL001-23 (antibody, V domains shown)
# VH: QVQLVESGAEVKKPGSSVKVSCKASGGTFSSYAISWVRQAPGQGLEWMGRIIPILGIANYAQKFQGRVTVTADKSTSTAYMELSSLRSEDTAVYYCARSGYGYAYGVFDHWGQGTLVTVSS
# VL: QLVLTQPPSVSGAPGQTVTISCTGPTIGAGYDVHWYQQLPGAAPKLLIYGNLNRPSGVPDRFSGSKSGTSASLAITDLQAEDEADYYCQSYDSRLGVVFGGGTKLTVL
# B21: KL001-22 (antibody, V domains shown)
# VH: QVQLVESGAEVKKPGSSVKVSCKASGGTFSSYAISWVRQAPGQGLEWMGRISPILGIANYAQKFQGRVTVTADKSTSTAYMELSSLRSEDTAVYYCARSGYGYAYGSFDYWGQGTLVTVSS
# VL: QLVLTQPPSVSGAPGQTVTISCTGPTIGAGYDVHWYQQLPGAAPKLLIYGNLNRPSGVPDRFSGSKSGTSASLAITDLQAEDEADYYCQSYDSTLGVVFGGGTKLTVL
# Molecular target: T1, PD-L1-Fc (PD-L1 antigen protein, extracellular region Met1-Thr239 fused to human Fc) (human, UniProt Q9NZQ7 19-239)
# T1 construct: range 1-239; the secreted protein lacks it; also called PD-L1-Fc antigen; pCEP4-PDL1-Fc product; not shown: human Fc fragment of the pCEP4-Fc vector
# Test: BLI (Octet); PD-1-coated biosensor dipped in a mix of PD-L1 antigen protein and antibody; KD from the Octet software
# T1 sequence (Q9NZQ7 19-239): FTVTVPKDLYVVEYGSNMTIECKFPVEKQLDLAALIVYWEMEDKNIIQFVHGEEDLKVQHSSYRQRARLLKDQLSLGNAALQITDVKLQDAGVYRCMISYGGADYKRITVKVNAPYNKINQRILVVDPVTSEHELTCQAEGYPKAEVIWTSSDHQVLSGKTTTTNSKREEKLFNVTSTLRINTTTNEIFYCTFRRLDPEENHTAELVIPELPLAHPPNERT
row,Binder,Kd [pM]
1,B1,9.08
2,B2,61.2
3,B3,5.8
4,B4,6.55
5,B5,21.6
6,B6,21.3
7,B7,15
8,B8,57.2
9,B9,20.4
10,B10,16.1
11,B11,21.6
12,B12,20.1
13,B13,40.8
14,B14,16.3
15,B15,28.3
16,B16,16.9
17,B17,13.7
18,B18,13.6
19,B19,18.3
20,B20,26.7
21,B21,49
